Article PMC9507012 (Blood, 2022)
Where “and” joins values, the source holds several entries; their conditions need not be identical. Equal entries are not always repeated.

Molecular target: the molecule itself
Experiment: crystal structure

B1: MEF2D_(2-95) (N-terminal residues 2-95 of human MEF2D) (domain or fragment, UniProt Q14814 2-95, looked up)
chain: GRKKIQIQRITDERNRQVTFTKRKFGLMKKAYELSVLCDCEIALIIFNHSNKLFQYASTDMDKVLLKYTEYNEPHESRTNADIIETLRKKGFNG
  stoichiometry N: 2 and 4
